We go through 16 substances from US20060223055A1.

The first assay deals with His-Xpress-SV40NLS-HBrd41047-1362 (human) (UniProt O60885).
With “HPV16 E2 Y178A (pCMV4-16E2 mutant, expressed in C33A cells) (from UniProt P03120 1-365)”, the percent of wild type E2 binding was over 40%.
On to “HPV16 E2 D122A (pCMV4-16E2 mutant, expressed in C33A cells) (from UniProt P03120 1-365)”, for which the percent of wild type E2 binding was over 40%.
Same read-out and setting: in the case of “HPV16 E2 E39A (pCMV4-16E2 mutant, expressed in C33A cells) (from UniProt P03120 1-365)” it was over 40%; in that of “HPV16 E2 Y138A (pCMV4-16E2 mutant, expressed in C33A cells) (from UniProt P03120 1-365)”, over 40%.
The substance “HPV16 E2 W92A (pCMV4-16E2 mutant, expressed in C33A cells) (from UniProt P03120 1-365)” came in with a percent of wild type E2 binding of under 10%.
On the same count and under the same terms, in the case of “HPV16 E2 R37A (pCMV4-16E2 mutant, expressed in C33A cells) (from UniProt P03120 1-365)” it was under 10%; in that of “HPV16 E2 E90A (pCMV4-16E2 mutant, expressed in C33A cells) (from UniProt P03120 1-365)”, over 40%; in that of “HPV16 E2 F121A (pCMV4-16E2 mutant, expressed in C33A cells) (from UniProt P03120 1-365)”, over 40%.
The same measure, in the same setting: in the case of “HPV16 E2 T93A (pCMV4-16E2 mutant, expressed in C33A cells) (from UniProt P03120 1-365)” it was over 40%; in that of “HPV16 E2 W33A (pCMV4-16E2 mutant, expressed in C33A cells) (from UniProt P03120 1-365)”, under 10%.
As to “HPV16 E2 K68A (pCMV4-16E2 mutant, expressed in C33A cells) (from UniProt P03120 1-365)”, the percent of wild type E2 binding was over 40%.
The same measure, in the same setting: in the case of “HPV16 E2 L79A (pCMV4-16E2 mutant, expressed in C33A cells) (from UniProt P03120 1-365)” it was over 40%.

The next assay deals with in vitro translated 35S-labeled Brd4-CTD (human) (UniProt O60885).
The substance “GST-tagged HPV16 E2 R37A (from UniProt P03120 1-365)” returned a percent of Brd4 bound compared to wild type E2 of under 20%.
On the same count and under the same terms, in the case of “GST-tagged HPV16 E2 W134A (from UniProt P03120 1-365)” it was under 20%; in that of “GST-tagged HPV16 E2 W33A (from UniProt P03120 1-365)”, under 20%.
The same measure, in the same setting: in the case of “GST-tagged HPV16 E2 W92A (from UniProt P03120 1-365)” it was under 20%.
